Data: US20260167699A1 (Chugai, published 2026)
Where a chain is given by its changes, count along the chain named.

B1: GpH7-A5/GpH7-B3 variant S298_03V/GpL16-k0 (antibody, human IgG1, kappa)
heavy 1: not shown
heavy 2: not shown
light: DIVMTQSPLSLPVTPGEPASISCQASESLVHSNRNTYLHWYLQKPGQSPQLLIYKVSNRFSGVPDRFSGSGSGTDFTLKISRVEAEDVGVYYCSQNTHVPPTFGQGTKVEIERTVAAPSVFIFPPSDEQLKSGTASVVCLLNNFYPREAKVQWKVDNALQSGNSQESVTEQDSKDSTYSLSSTLTLSKADYEKHKVYACEVTHQGLSSPVTKSFNRGEC
notes: heterodimerized IgG1, one H chain mutated; also called He Ab; copies: 1 + 1 + 2
B2: GpH7-A5/GpH7-B3 variant S298_16H/GpL16-k0 (antibody, human IgG1, kappa)
heavy 1: not shown
heavy 2: not shown
light: B1 light
notes: as for B1
B3: GpH7-A5/GpH7-B3 variant S324_03V/GpL16-k0 (antibody, human IgG1, kappa)
heavy 1: not shown
heavy 2: not shown
light: B1 light
notes: as for B1
B4: GpH7-A5/GpH7-B3 variant Y296_04F/GpL16-k0 (antibody, human IgG1, kappa)
heavy 1: not shown
heavy 2: not shown
light: B1 light
notes: as for B1
B5: GpH7-A5/GpH7-B3 variant S298_04F/GpL16-k0 (antibody, human IgG1, kappa)
heavy 1: not shown
heavy 2: not shown
light: B1 light
notes: as for B1
B6: GpH7-A5/GpH7-B3 variant S298_14T/GpL16-k0 (antibody, human IgG1, kappa)
heavy 1: not shown
heavy 2: not shown
light: B1 light
notes: as for B1
B7: GpH7-A5/GpH7-B3 variant Y296_07I/GpL16-k0 (antibody, human IgG1, kappa)
heavy 1: not shown
heavy 2: not shown
light: B1 light
notes: as for B1
B8: GpH7-A5/GpH7-B3 variant S298_07I/GpL16-k0 (antibody, human IgG1, kappa)
heavy 1: not shown
heavy 2: not shown
light: B1 light
notes: as for B1
B9: GpH7-A5/GpH7-B3 variant S324_09D/GpL16-k0 (antibody, human IgG1, kappa)
heavy 1: not shown
heavy 2: not shown
light: B1 light
notes: as for B1
B10: GpH7-A5/GpH7-B3 variant S298_06M/GpL16-k0 (antibody, human IgG1, kappa)
heavy 1: not shown
heavy 2: not shown
light: B1 light
notes: as for B1
B11: GpH7-A5/GpH7-B3 variant S324_11K/GpL16-k0 (antibody, human IgG1, kappa)
heavy 1: not shown
heavy 2: not shown
light: B1 light
notes: as for B1
B12: GpH7-A5/GpH7-B3 variant S324_10E/GpL16-k0 (antibody, human IgG1, kappa)
heavy 1: not shown
heavy 2: not shown
light: B1 light
notes: as for B1
B13: GpH7-A5/GpH7-B3 variant Y296_03V/GpL16-k0 (antibody, human IgG1, kappa)
heavy 1: not shown
heavy 2: not shown
light: B1 light
notes: as for B1
B14: GpH7-A5/GpH7-B3 variant S324_12R/GpL16-k0 (antibody, human IgG1, kappa)
heavy 1: not shown
heavy 2: not shown
light: B1 light
notes: as for B1
B15: GpH7-A5/GpH7-B3 variant S324_08L/GpL16-k0 (antibody, human IgG1, kappa)
heavy 1: not shown
heavy 2: not shown
light: B1 light
notes: as for B1
B16: GpH7-A5/GpH7-B3 variant Y296_06M/GpL16-k0 (antibody, human IgG1, kappa)
heavy 1: not shown
heavy 2: not shown
light: B1 light
notes: as for B1
B17: GpH7-A5/GpH7-B3 variant S324_14T/GpL16-k0 (antibody, human IgG1, kappa)
heavy 1: not shown
heavy 2: not shown
light: B1 light
notes: as for B1
B18: GpH7-A5/GpH7-B3 variant Y296_02A/GpL16-k0 (antibody, human IgG1, kappa)
heavy 1: not shown
heavy 2: not shown
light: B1 light
notes: as for B1
B19: GpH7-A5/GpH7-B3 variant S298_11K/GpL16-k0 (antibody, human IgG1, kappa)
heavy 1: not shown
heavy 2: not shown
light: B1 light
notes: as for B1
B20: GpH7-A5/GpH7-B3 variant S324_18N/GpL16-k0 (antibody, human IgG1, kappa)
heavy 1: not shown
heavy 2: not shown
light: B1 light
notes: as for B1
B21: GpH7-A5/GpH7-B3 variant Y296_01G/GpL16-k0 (antibody, human IgG1, kappa)
heavy 1: not shown
heavy 2: not shown
light: B1 light
notes: as for B1
B22: GpH7-A5/GpH7-B3 variant S298_19Q/GpL16-k0 (antibody, human IgG1, kappa)
heavy 1: not shown
heavy 2: not shown
light: B1 light
notes: as for B1
B23: GpH7-A5/GpH7-B3 variant S298_08L/GpL16-k0 (antibody, human IgG1, kappa)
heavy 1: not shown
heavy 2: not shown
light: B1 light
notes: as for B1
B24: GpH7-A5/GpH7-B3 variant S324_04F/GpL16-k0 (antibody, human IgG1, kappa)
heavy 1: not shown
heavy 2: not shown
light: B1 light
notes: as for B1
B25: GpH7-A5/GpH7-B3 variant S298_15Y/GpL16-k0 (antibody, human IgG1, kappa)
heavy 1: not shown
heavy 2: not shown
light: B1 light
notes: as for B1
B26: GpH7-A5/GpH7-B3 variant S324_07I/GpL16-k0 (antibody, human IgG1, kappa)
heavy 1: not shown
heavy 2: not shown
light: B1 light
notes: as for B1
B27: GpH7-A5/GpH7-B3 variant S298_12R/GpL16-k0 (antibody, human IgG1, kappa)
heavy 1: not shown
heavy 2: not shown
light: B1 light
notes: as for B1
B28: GpH7-A5/GpH7-B3 variant S324_15Y/GpL16-k0 (antibody, human IgG1, kappa)
heavy 1: not shown
heavy 2: not shown
light: B1 light
notes: as for B1
B29: GpH7-A5/GpH7-B3 variant Y296_08L/GpL16-k0 (antibody, human IgG1, kappa)
heavy 1: not shown
heavy 2: not shown
light: B1 light
notes: as for B1
B30: GpH7-A5/GpH7-B3 variant S324_19Q/GpL16-k0 (antibody, human IgG1, kappa)
heavy 1: not shown
heavy 2: not shown
light: B1 light
notes: as for B1

What follows are binders tested against T1, FcγRIa extracellular domain, C-terminal His tag (human, UniProt P12314 16-292) (assay: SPR; He Ab vs HeCon Ab (GpH7-A5/GpH7-B3/GpL16-k0)=100;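 note: surface plasmon resonance at 25 °C with the test antibody captured on a sensor chip via antigenic peptide, protein L or protein A/G and FcγR flowed over as analyte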).
T1 construct: extracellular domain; also called 1a
T1 sequence (P12314 other isoform, or with tags, fused parts or gaps): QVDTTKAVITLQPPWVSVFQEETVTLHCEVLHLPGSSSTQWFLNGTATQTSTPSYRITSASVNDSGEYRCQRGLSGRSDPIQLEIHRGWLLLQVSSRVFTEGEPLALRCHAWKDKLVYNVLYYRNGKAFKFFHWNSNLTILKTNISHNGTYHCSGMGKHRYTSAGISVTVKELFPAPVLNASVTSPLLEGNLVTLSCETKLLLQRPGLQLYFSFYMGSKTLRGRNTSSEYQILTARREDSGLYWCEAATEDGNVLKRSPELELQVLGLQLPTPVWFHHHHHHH

| Binder | He/Con 1a |
| --- | --- |
| B1 | 106% |
| B2 | 105% |
| B3 | 97.7% |
| B4 | 101% |
| B5 | 106% |
| B6 | 104% |
| B7 | 101% |
| B8 | 104% |
| B9 | 97.7% |
| B10 | 111% |
| B11 | 96.3% |
| B12 | 98.9% |
| B13 | 101% |
| B14 | 95.9% |
| B15 | 97.3% |
| B16 | 101% |
| B17 | 114% |
| B18 | 99.8% |
| B19 | 106% |
| B20 | 109% |
| B21 | 99.4% |
| B22 | 106% |
| B23 | 104% |
| B24 | 103% |
| B25 | 104% |
| B26 | 96.2% |
| B27 | 106% |
| B28 | 107% |
| B29 | 101% |
| B30 | 106% |

The binders below were run against T2, FcγRIIa(R) extracellular domain, C-terminal His tag (human, UniProt P12318 34-217) in the same assay as above.
T2 construct: extracellular domain; also called 2aR
T2 sequence: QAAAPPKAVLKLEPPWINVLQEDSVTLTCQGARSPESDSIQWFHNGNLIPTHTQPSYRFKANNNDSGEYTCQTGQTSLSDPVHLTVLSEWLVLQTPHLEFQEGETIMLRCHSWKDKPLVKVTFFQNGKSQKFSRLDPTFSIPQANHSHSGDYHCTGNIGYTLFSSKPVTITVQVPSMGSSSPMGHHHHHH

| Binder | He/Con 2aR |
| --- | --- |
| B1 | 82.5% |
| B2 | 84.7% |
| B3 | 113% |
| B4 | 105% |
| B5 | 80.4% |
| B6 | 94.2% |
| B7 | 96.7% |
| B8 | 86.2% |
| B9 | 102% |
| B10 | 104% |
| B11 | 91% |
| B12 | 99% |
| B13 | 92% |
| B14 | 84% |
| B15 | 110% |
| B16 | 96.8% |
| B17 | 93.9% |
| B18 | 93% |
| B19 | 91% |
| B20 | 101% |
| B21 | 91.6% |
| B22 | 90.9% |
| B23 | 100% |
| B24 | 99.6% |
| B25 | 75.7% |
| B26 | 109% |
| B27 | 81.6% |
| B28 | 107% |
| B29 | 93.7% |
| B30 | 86.8% |

The binders below were run against T3, FcγRIIa(H) extracellular domain, C-terminal His tag (human, UniProt P12318 34-217) in the same assay as above.
T3 construct: extracellular domain; also called 2aH
T3 sequence: T2 sequence with R134H

| Binder | He/Con 2aH |
| --- | --- |
| B1 | 83.2% |
| B2 | 80.2% |
| B3 | 108% |
| B4 | 97.8% |
| B5 | 75.5% |
| B6 | 96.2% |
| B7 | 92.7% |
| B8 | 84.9% |
| B9 | 117% |
| B10 | 95.8% |
| B11 | 102% |
| B12 | 114% |
| B13 | 86.9% |
| B14 | 107% |
| B15 | 106% |
| B16 | 94.2% |
| B17 | 107% |
| B18 | 89.1% |
| B19 | 63.9% |
| B20 | 109% |
| B21 | 91.6% |
| B22 | 88.9% |
| B23 | 83% |
| B24 | 106% |
| B25 | 71.2% |
| B26 | 107% |
| B27 | 67.4% |
| B28 | 114% |
| B29 | 86.9% |
| B30 | 106% |

Each binder was assayed against T4, FcγRIIb extracellular domain, C-terminal His tag (human, UniProt P31994 43-217) in the same assay as above.
T4 construct: extracellular domain; also called 2b
T4 sequence: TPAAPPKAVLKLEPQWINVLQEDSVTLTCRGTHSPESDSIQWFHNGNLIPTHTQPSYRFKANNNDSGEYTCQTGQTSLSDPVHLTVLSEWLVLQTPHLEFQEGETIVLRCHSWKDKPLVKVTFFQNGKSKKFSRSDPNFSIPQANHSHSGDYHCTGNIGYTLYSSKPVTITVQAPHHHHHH

| Binder | He/Con 2b |
| --- | --- |
| B1 | 65.4% |
| B2 | 64.4% |
| B3 | 128% |
| B4 | 101% |
| B5 | 66.3% |
| B6 | 79% |
| B7 | 85.5% |
| B8 | 71.5% |
| B9 | 112% |
| B10 | 103% |
| B11 | 89.6% |
| B12 | 101% |
| B13 | 80.4% |
| B14 | 82.4% |
| B15 | 117% |
| B16 | 89% |
| B17 | 115% |
| B18 | 83.1% |
| B19 | 62.2% |
| B20 | 106% |
| B21 | 80.4% |
| B22 | 74.3% |
| B23 | 110% |
| B24 | 99.9% |
| B25 | 62.2% |
| B26 | 125% |
| B27 | 58.6% |
| B28 | 115% |
| B29 | 83.5% |
| B30 | 87.2% |

What follows are binders tested against T5, FcγRIIIa extracellular domain, C-terminal His tag (human, UniProt P08637 17-208) in the same assay as above.
T5 construct: extracellular domain; also called 3a
T5 sequence (P08637 other isoform, or with tags, fused parts or gaps): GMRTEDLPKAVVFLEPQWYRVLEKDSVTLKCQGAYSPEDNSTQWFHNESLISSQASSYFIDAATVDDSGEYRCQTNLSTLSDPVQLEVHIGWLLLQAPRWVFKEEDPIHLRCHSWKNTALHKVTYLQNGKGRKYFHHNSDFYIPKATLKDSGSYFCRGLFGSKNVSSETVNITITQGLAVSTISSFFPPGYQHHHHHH

| Binder | He/Con 3a |
| --- | --- |
| B1 | 103% |
| B2 | 71.9% |
| B3 | 101% |
| B4 | 79.5% |
| B5 | 77.6% |
| B6 | 106% |
| B7 | 75.8% |
| B8 | 90.7% |
| B9 | 110% |
| B10 | 87.2% |
| B11 | 90.2% |
| B12 | 108% |
| B13 | 69.1% |
| B14 | 98.1% |
| B15 | 95.5% |
| B16 | 74.6% |
| B17 | 112% |
| B18 | 66.3% |
| B19 | 50% |
| B20 | 103% |
| B21 | 51.3% |
| B22 | 70.6% |
| B23 | 69.2% |
| B24 | 99.3% |
| B25 | 80.6% |
| B26 | 101% |
| B27 | 52.1% |
| B28 | 110% |
| B29 | 72.4% |
| B30 | 96.2% |
